Consider 94 variants from the supplement of paper PMC10567573.

Sequences and labels used below:
B1: NET1 (parent)
chain: RVRPLARVTSLANLISPVRNGAVR
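Also: lentivirally expressed fusions sorted by FACS into six bins by GFP to DsRed ratio, PSI derived from sequencing read proportions per bin multiplied by bin number.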

Variants of B1 are the subject of this series. Put plainly: protein stability index of a GFP-peptide fusion (GPS, HEK-293T) (PSI 1-6); higher = more stable. The following applies: c terminus: a fixed tail appended.
Take KVRPLARVTSLANLISPVRNGAVR [R1K]: the protein stability index came out at 2.97. As for FVRPLARVTSLANLISPVRNGAVR [R1F], the protein stability index came out at 3.21.

On to SVRPLARVTSLANLISPVRNGAVR [R1S], for which the protein stability index amounted to 3.43. As for DVRPLARVTSLANLISPVRNGAVR [R1D], the protein stability index was 3.73. As to IVRPLARVTSLANLISPVRNGAVR [R1I], the protein stability index stood at 2.81. On to PVRPLARVTSLANLISPVRNGAVR [R1P], for which the protein stability index was 3.11. Regarding VVRPLARVTSLANLISPVRNGAVR [R1V], the protein stability index stood at 2.15.

In the case of YVRPLARVTSLANLISPVRNGAVR [R1Y], the protein stability index came out at 2.22. As for RVRPRARVTSLANLISPVRNGAVR [L5R], the protein stability index was 3.2. As to RVRPTARVTSLANLISPVRNGAVR [L5T], the protein stability index amounted to 2.56.

As to RVRPFARVTSLANLISPVRNGAVR [L5F], the protein stability index came to 2.71. For RVRPQARVTSLANLISPVRNGAVR [L5Q], the protein stability index is 3.54. Consider RVRPMARVTSLANLISPVRNGAVR [L5M], for which the protein stability index was determined as 2.55.

As to RVRPKARVTSLANLISPVRNGAVR [L5K], the protein stability index is 2.85. RVRPEARVTSLANLISPVRNGAVR [L5E]: the protein stability index is 3.61. Consider RVRPNARVTSLANLISPVRNGAVR [L5N], for which the protein stability index is 2.56.

On to RVRPYARVTSLANLISPVRNGAVR [L5Y], for which the protein stability index was found to be 2.59. In the case of RVRPDARVTSLANLISPVRNGAVR [L5D], the protein stability index is 3.04. As for RVRPPARVTSLANLISPVRNGAVR [L5P], the figure is 3.3; as for RVRPCARVTSLANLISPVRNGAVR [L5C], 3.04; as for RVRPWARVTSLANLISPVRNGAVR [L5W], 2.03. To RVRPHARVTSLANLISPVRNGAVR [L5H] belongs 3.14. Regarding RVRPGARVTSLANLISPVRNGAVR [L5G], the protein stability index turned out to be 2.5. As for RVRPSARVTSLANLISPVRNGAVR [L5S], the figure is 3.6; as for RVRPIARVTSLANLISPVRNGAVR [L5I], 3.04; as for RVRPVARVTSLANLISPVRNGAVR [L5V], 3.59.

RVRPAARVTSLANLISPVRNGAVR [L5A]: the protein stability index is 3.36. For RVGPLARVTSLANLISPVRNGAVR [R3G], the protein stability index came to 3.1. As to RVSPLARVTSLANLISPVRNGAVR [R3S], the protein stability index stood at 3.03. As for RVCPLARVTSLANLISPVRNGAVR [R3C], the figure is 1.72; as for RVQPLARVTSLANLISPVRNGAVR [R3Q], 3.33; as for RVHPLARVTSLANLISPVRNGAVR [R3H], 2.67. On to RVDPLARVTSLANLISPVRNGAVR [R3D], for which the protein stability index worked out at 3.03. Consider RVWPLARVTSLANLISPVRNGAVR [R3W], for which the protein stability index is 1.91. For the variant RVTPLARVTSLANLISPVRNGAVR [R3T], the protein stability index was found to be 2.99.

For the variant RVPPLARVTSLANLISPVRNGAVR [R3P], the protein stability index is 3.49. Take RVVPLARVTSLANLISPVRNGAVR [R3V]: the protein stability index was 2.6. Regarding RVFPLARVTSLANLISPVRNGAVR [R3F], the protein stability index was 2.69. On to RVLPLARVTSLANLISPVRNGAVR [R3L], for which the protein stability index stood at 2.34. As to RVIPLARVTSLANLISPVRNGAVR [R3I], the protein stability index was 2.22. With RVKPLARVTSLANLISPVRNGAVR [R3K], the protein stability index is 2.81. For the variant RVYPLARVTSLANLISPVRNGAVR [R3Y], the protein stability index was 2.55.

On to RVNPLARVTSLANLISPVRNGAVR [R3N], for which the protein stability index worked out at 2.36.

On to RVAPLARVTSLANLISPVRNGAVR [R3A], for which the protein stability index was found to be 3.02. As for RVEPLARVTSLANLISPVRNGAVR [R3E], the figure is 2.59; as for RVMPLARVTSLANLISPVRNGAVR [R3M], 2.46; as for RVRPLAMVTSLANLISPVRNGAVR [R7M], 2.64. In the case of RVRPLAKVTSLANLISPVRNGAVR [R7K], the protein stability index worked out at 2.26. In the case of RVRPLAEVTSLANLISPVRNGAVR [R7E], the protein stability index was determined as 2.5. With RVRPLAIVTSLANLISPVRNGAVR [R7I], the protein stability index came out at 2.43. For the variant RVRPLAGVTSLANLISPVRNGAVR [R7G], the protein stability index was determined as 3.93.

Take RVRPLAFVTSLANLISPVRNGAVR [R7F]: the protein stability index came to 1.85.

In the case of RVRPLADVTSLANLISPVRNGAVR [R7D], the protein stability index stood at 2.84. In the case of RVRPLALVTSLANLISPVRNGAVR [R7L], the protein stability index was determined as 2.83. To RVRPLANVTSLANLISPVRNGAVR [R7N] belongs 3.31; to RVRPLAHVTSLANLISPVRNGAVR [R7H], 2.71.

In the case of RVRPLAAVTSLANLISPVRNGAVR [R7A], the protein stability index turned out to be 3.88. As for RVRPLACVTSLANLISPVRNGAVR [R7C], the figure is 2.39; as for RVRELARVTSLANLISPVRNGAVR [P4E], 2; as for RVRHLARVTSLANLISPVRNGAVR [P4H], 2.86.

With RVRWLARVTSLANLISPVRNGAVR [P4W], the protein stability index worked out at 2.71. RVRKLARVTSLANLISPVRNGAVR [P4K]: the protein stability index turned out to be 2.87. Take RVRALARVTSLANLISPVRNGAVR [P4A]: the protein stability index turned out to be 2.06. As for RVRRLARVTSLANLISPVRNGAVR [P4R], the protein stability index turned out to be 1.97. As for RVRMLARVTSLANLISPVRNGAVR [P4M], the protein stability index came out at 1.43.

Regarding RVRQLARVTSLANLISPVRNGAVR [P4Q], the protein stability index stood at 2.51. On to RVRILARVTSLANLISPVRNGAVR [P4I], for which the protein stability index stood at 1.4. As for RVRFLARVTSLANLISPVRNGAVR [P4F], the figure is 2.4; as for RVRVLARVTSLANLISPVRNGAVR [P4V], 2.02; as for RVRGLARVTSLANLISPVRNGAVR [P4G], 2.38. Turning to RVRSLARVTSLANLISPVRNGAVR [P4S], the protein stability index stood at 2.85.

RVRCLARVTSLANLISPVRNGAVR [P4C]: the protein stability index turned out to be 1.18. For RVRDLARVTSLANLISPVRNGAVR [P4D], the protein stability index is 3.06. In the case of RVRNLARVTSLANLISPVRNGAVR [P4N], the protein stability index was determined as 2.9. As for RVRTLARVTSLANLISPVRNGAVR [P4T], the figure is 2.31; as for RVRPLIRVTSLANLISPVRNGAVR [A6I], 2.76; as for RVRPLTRVTSLANLISPVRNGAVR [A6T], 2.9. Take RVRPLCRVTSLANLISPVRNGAVR [A6C]: the protein stability index stood at 2.98. Consider RVRPLVRVTSLANLISPVRNGAVR [A6V], for which the protein stability index came out at 3.36.

As to RVRPLKRVTSLANLISPVRNGAVR [A6K], the protein stability index amounted to 2.74.

Turning to RVRPLYRVTSLANLISPVRNGAVR [A6Y], the protein stability index amounted to 2.02. RVRPLHRVTSLANLISPVRNGAVR [A6H]: the protein stability index turned out to be 2.69. Turning to RVRPLGRVTSLANLISPVRNGAVR [A6G], the protein stability index turned out to be 3.98.

With RVRPLLRVTSLANLISPVRNGAVR [A6L], the protein stability index stood at 2.72.

For the variant RVRPLDRVTSLANLISPVRNGAVR [A6D], the protein stability index was 2.95. To RVRPLMRVTSLANLISPVRNGAVR [A6M] belongs 3.18; to RVRPLRRVTSLANLISPVRNGAVR [A6R], 3.33; to RVRPLSRVTSLANLISPVRNGAVR [A6S], 2.53. RVRPLQRVTSLANLISPVRNGAVR [A6Q]: the protein stability index came out at 3.17. Regarding RVRPLERVTSLANLISPVRNGAVR [A6E], the protein stability index was 3.06.

For RVRPLPRVTSLANLISPVRNGAVR [A6P], the protein stability index was 3.04. In the case of RVRPLFRVTSLANLISPVRNGAVR [A6F], the protein stability index was determined as 2.71.

As to RVRPLNRVTSLANLISPVRNGAVR [A6N], the protein stability index worked out at 2.93.

On to RVRPLWRVTSLANLISPVRNGAVR [A6W], for which the protein stability index stood at 2.35.
